# Values quoted from earlier work in article PMC4134560.
# Target: p53 (Homo sapiens) (UniProt P04637)
# Settings: cited from earlier work
substance,measurement,value
p53 (from UniProt P04637),Kd,< 1000 nM
